# Test results published in patent US20040191910, “Genes encoding plant transcription factors” (International Research Center for Agricultural Sciences, published 2004).
# Target: OsDREB2A (Oryza sativa, UniProt A2WL19 SEQ:1-163)
# Assay: EMSA; room temperature 20 min, 5% PAGE 0.25x TBE
# Conditions: tags: N-terminal GST (pGEX-4T-1), cDNA nt 334-822; label: 32P
# Experimental: The E. coli into which the protein had been induced was suspended in 18 ml of buffer (10 mM Tris-HCl, pH 8.0, 0.1 mM EDTA, 5 mM MgCl₂, 400 mM NaCl, 5% glycerol, 0.1 mM phenylmethylsulfonyl fluoride, 0.1 mM dithiothreitol). Then, 1% Triton X-100 and 1 mM EDTA were added thereto. After the cells were disrupted by sonication, the disrupted material was centrifuged at 20,000 g for 1 hour. Then, the protein was purified from the supernatant using glutathione-Sepharose (Pharmacia). The resultant fusion protein was incubated at room temperature for 20 minutes using the DRE sequence-containing 75 bp DNA fragment (SEQ ID NO: 16) labeled with ³²P as a probe. This mixture was electrophoresed using 5% polyacrylamide containing 0.25×Tris-borate-EDTA at 120 V for 90 minutes. As a result of this gel shift assay, those bands which migrated to the back were detected. When the DNA fragment containing the mutated DRE sequence was used as a probe, such bands were not detected. Thus, it became evident that OsDREB1A and OsDREB2A proteins specifically bind to the DRE sequence (FIG. 4).
# Chain of OsDREB2A (A2WL19 1-163): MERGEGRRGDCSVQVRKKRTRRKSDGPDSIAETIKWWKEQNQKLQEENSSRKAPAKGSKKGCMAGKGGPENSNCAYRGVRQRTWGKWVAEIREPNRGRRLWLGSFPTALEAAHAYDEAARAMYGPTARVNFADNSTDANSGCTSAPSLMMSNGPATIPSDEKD
binder,measurement,value
DRE 75 bp fragment of rd29A promoter (dsDNA) DNA 1: ACATCAGTTTGAAAGAAAAGGGAAAAAAAGAAAAAATAAATAAAAGATATACTACCGACATGAGTTCCAAAAAGC DNA 2: GCTTTTTGGAACTCATGTCGGTAGTATATCTTTTATTTATTTTTTCTTTTTTTCCCTTTTCTTTCAAACTGATGT,binding result,binds
